This assay has as its target His-tAmSOD2 (Avicennia marina MnSOD, AmSOD2, without the mitochondrial transit peptide) (Avicennia marina). Put plainly: SEC; gel filtration chromatography on a calibrated Biosil-250 analytical column, elution compared with standard proteins; native mass of almost 116 kDa against a single band of 26 kDa after SDS and DTT. (In gel filtration, larger molecules generally elute earlier.)

A word on the stoichiometry N: it is the number of molecules, sites or subunits per partner or assembly.

As for “His-tAmSOD2 (Avicennia marina MnSOD, AmSOD2, without the mitochondrial transit peptide) (enzyme)”, the stoichiometry N was 4.

For the origin of these results see PMC10764323.
